Patent US20210309702A1
Like-named read-outs stand apart in the source and are kept apart here.

Experiments:
Test in all cases: cell-based or functional assay
[1] = molecular target: VSV-G fused with GFP11 at its C terminus (VSV-G-GFP11) (Vesicular Stomatitis Virus (Indiana strain)) (UniProt P03522)
[2] = molecular target: superfolder GFP tagged VSV-G (VSV-G-sfGFP) (Vesicular Stomatitis Virus (Indiana strain)) (UniProt P03522)
[3] = molecular target: VSV-G fused with GFP11 at its C terminus (VSV-G-GFP11) (Vesicular Stomatitis Virus (Indiana strain)) (UniProt P03522); remark: listed apart in the source

Substance: Cre recombinase fused with GFP1-10 (Cre-GFP1-10) (from UniProt P06956 1-343)
- 293ColorSwitch cells switched to GFP [1]: 66.9%
- 293ColorSwitch cells switched to GFP [2]: 2.6%
- 293ColorSwitch cells switched to GFP [3]: > 80%
